Experiment: yeast display, Sf9 membrane polyspecificity reagent, FACS + sequencing; frameworks hold sequencing errors
Procedure, shortened: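 Polyreactivity labels are assigned by the sorting gate from which each nanobody was recovered. The gates were low and high (top ~1%), set on anti-HA fluorescence for expression and streptavidin fluorescence for reagent binding. Before sorting, galactose-induced (36–48 hours) yeast display cells were stained for 1 hour at 4 °C with 10% biotinylated, detergent-solubilized Sf9 membrane reagent.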

Sequence	polyreactivity (PSR sort gate)
QVQLVESGGGLVQGGGSLRLSCAASGRIFGHYVMGSYRQAPGKERELVAAISYSGGSTYYADSVKGRFTISRDNAKNTVYLQMNSLKPEDTAVFYCAARVTQDSPYGAYYYWGQGTQVTVSS	high polyreactivity
QVQLVESGGGLVQGGGSLRLSCAASGRIFGVNAMGWYRQAPGKERELVATITSGTSTYYADSVKGRFTIARDNATTTVYLQITSLKPEDTAVYYSATSRVIPWDYDSWGQGTQVTVSS	low polyreactivity
QVQLVESGGGLVQGGGSLRLSCAASGRIFTRYTMGWYRPAPGKERELVAASTKRADRTNYADSVKGRFTISRDNAKNTVYLQMNSLKPEDTAVYSCNDAAFSQLRVRYDYWGQGTQVTVSS	low polyreactivity
QVQLVESGGGLVQGGGSLRLSCAASGRTFYGYAMGWYRQAPGKERELVAAITRSGGSTYYADSVKGRFTISRDNAKKTVYLQMNILKPVDTAVYYCAAGGQARHDYWGQGTQVTVSS	low polyreactivity
QVQLVESGGGLVQGGGSLRLSCAASGSIFSDYAMGWYRQAPGKEREFVAPITWSGTSTYYADSVKGRFTISRYNAKNTVYLQMNSLKPEDTAGDYSAADLLFWLGLVPGTIYDEFDYWGQGTQVTVAS	low polyreactivity
QVQLVESGGGLVQGGGSLRLSCDASGCNFRKNAMGWYRQAPGKERDLVAAISWDGDNTYADSVKGRFTISRDNAMNNVYLQLYSLKPVYTAVSYCAAETFTYYDYWGQGTQVNVSS	high polyreactivity
QVQLVESGGGLVQGGGSLRLTCAASGSIFHYYAMGWYRQAPGKERELVAAINSSGGSRTYYADSVKGRFTISRDNAKNTVYLQMNSLKPEDTAVYYCAADYRVVWRAYDYWGQGTQVTVSS	low polyreactivity
QVQLVESGGGLVQGGGSLSLRCAASGSTFDYNAMGWYRQAPGKERDLVAVISGGSSTNYADSVKGRFTISRDNEKNTVYLQMNSLNPEDTAVYYCNARDYFVARAVSFVTYWLGVYWGQGTQVSVSS	low polyreactivity
QVQLVESGGGLVQPGGSLRLSCAASGGIFRSYAMGSYRQAPGKERELVAVITKSGGDTYYADSVKGRFTISRDNAKNTVYLQMNRVKPVDTAVYYCAAVYGYYTYWIPGFTWAVDYWGQGTQVTVSS	low polyreactivity
QVQLVESGGGLVQPGGSLRLSCAASGRIFKRNAMGCYRQAPGKERELVAAITWRGGSTYYADSVKGRFTISRDNAKNTVYLQMKSMKPEDTAVYYCNVGYGGSSDGGYDYWGHGTQVTVSS	high polyreactivity
QVQLVESGGGLVQPGGSLRLSCAASGRTFGSYVMGWYRQAPWKQRELVATISRRGGTTYYADSVKGRVTISRDNAKNSVYLELLSLKPVDTAVYYCADKYFGTRYDYWGQGTQVTVSS	high polyreactivity
QVQLVESGGGLVQPGGSLRLSCAASGRTSEIYTMGWYRPAPGKERELVASINTNSADSVKGRFTISRDNAKNTVYLQMNSLKPEDTAVYYCNADDTIEFNYWGQGTQVTVSS	low polyreactivity
QVQLVESGGGLVQPGGSLRLSCAASGSIASYAMGWYRQAPGKERELVAGISWSGGSTYYADSVKGRFTISRDNAKNTVYLQMNSLKPEDTAVYYCNAYSAFVPPTRGYYWGQGTQVTVSS	high polyreactivity
QVQLVESGGGLVQPGGSLRLSCAASGSIFIGYAMGWYRQAPGKERELVASIRNGGSTNYADSVKGRFTISRDNAKNTVYLQMNSLKPEDTAVYYCAGRYPVFLVSFGFDYWGQGTQVTVSS	low polyreactivity
QVQLVESGGGLVQPGGSLRLSCAASGSTLRRNAMGWYRQATRIERELVSAITGSRGSTYYADSVKGRFTISLDNAKNTVYLQMNCLKPEDTAVYYCAALYYYHLLPSRYYRFVYWGQGTQVTVSS	high polyreactivity
QVQLVESGGGLVQPGGSLRLSCAASRSIFKVYAMGWYRQEPGKEREFVAAITSSDSNTNYADSVKGRFTISRDNAKNTVYLQMHSLKPEDTAVYYCNARIYNRRYVPHYGFNYWGQGTQVTVSS	low polyreactivity
QVQLVESGGGLVQPGGSLRLTCAASGGIFVTYTMGWYRQAPGKDRELVAGINSRSGSTYADSVKGGFTISRDNAKNTVYLQRTSLKLEDTAVYYCAADRIDLGRASRYGYWGQGTQVTVSS	low polyreactivity
QVQLVESGGGLVQSGASLRLSCAASGLIIGLYALGWYRQAPGKERELVAAISDNGARTYYADSVKGRFTISRDNAKNTVYLQMNSLKPEDTAVYYCARDQSYHYNYWGQGTQVTVSS	low polyreactivity
QVQLVESGGGLVQSGGILRLSCAASGSTSPIYAMGWYRQAPGTERELVAAINGVGSTNYADSVKGRFTISRDNAKTTVYFQMNSLKPADTAVYYCAADGTALHEYLGDYDYWGQGTQVTVSS	low polyreactivity
QVQLVESGGGLVQSGGSIRLSCAASGSTFLWYCMGWYRQAPGKERELVASISRGGGTDYADSVKGRFTISRDNAKNTVYLQMNSLKPEDTAVYYCAATGVNRYDHWGQGTHVTVSS	low polyreactivity
QVQLVESGGGLVQSGGSLRLICAASGRNYAMGWYRQAPGKERELVARITKSGTSTYYADSVKGRFTISRDNAKNTVYLQMNSLKPEDTAVYYCNARYWGYWGDHYDYWGQGTQVTVSS	high polyreactivity

Sequence	polyreactivity (PSR sort gate)
QVQLVESGGGLVQSGGSLRLSCAASGGIFRYYVMGWYRQAPGKERELVAPINSGGTTYYEDSVKGRFTISRDNAKNTVYLQMNSLKPEDTAVYFCAAYYAGFGYNYWGQGTQVTVSS	low polyreactivity
QVQLVESGGGLVQSGGSLRLSCAASGIIFNDYAMGWYRQAPGKERELVAAISGRGGRTYYADSVKGRFTISRDNAKITVYLQMNSLKPEDTAVYYCAARVLPTDYYWGQGTQVTVSS	high polyreactivity
QVQLVESGGGLVQSGGSLRLSCAASGIIFQYYAMGWYRQAPGKEMELVAAITSSGGSTFYADSVKGSFTISRDNAKNTVYLQMNSLKPEDTAVYYCAAVYHRSTYDYWGQGTQVNVSS	high polyreactivity
QVQLVESGGGLVQSGGSLRLSCAASGLIFPYYAMGWYRQAPGKERELVAAITGNGGRTYYADSVKGRFTISRDNAKYNVYLQMNSLKPEDTAVYYCAAAGKASSDYYVLGGYWGQGTQVTVSS	high polyreactivity
QVQLVESGGGLVQSGGSLRLSCAASGLTFLNNALGWYRQAPGKERELVAAISDGGSPNYADSVKGRFTISRDNAKNTVFLQMNSLKPEDTAVYYCAAVYTSASYGSWGQGTQVTVSS	low polyreactivity
QVQLVESGGGLVQSGGSLRLSCAASGRTFFENAMGWYRPAPGKEREFVAAISYNGGSTYYADSVKGRFTISRDNAKNTVYLQMNSLKPEDTAVYYCAADPNYGYDYWGQGTQVTVSS	low polyreactivity
QVQLVESGGGLVQSGGSLRLSCAASGSIFWYNARGWYRQAPGKERELVAAINGGGRTYYADSVKGPFTISRDNAKNTVYLQMNSLKPEDTAVYYCAVDPISQGHMDYGGQGTQVTVSS	low polyreactivity
QVQLVESGGGLVQSGGSLRLSCAASGYIFFFNAMGWYRQAPGKERELVAAITRRGVSTYYADSVKGRCTISRDNAKNTVFLQMNSLKPEDTAVYYCATEHNHLGYYYWGQGTQVTVSS	low polyreactivity
QVQLVESGGGLVQSGGSLRLSCAASGYTFLEYTMGWYRQAPGKERELVAAITSGGSTKYADSVKGRFTISRDNAKNTVYLQMNSLKPEDTAVYYCNARHYSREFDYWGQGTQVTVSS	low polyreactivity
QVQLVESGGGLVQSGGSLRLSCAAYGLILTHYSMGRYRQAPGKESELVAAIDYGGGSNTYYADSVKGLFTISRDNAKNTDYLQMNSLKPEDTAVYYCAAYRAGNSYDPRLNYWGQGTQVTVSS	high polyreactivity
QVQLVESGGGLVQSGGSLRLSCAGSGSTLYYYVMGWYRQAPGKERELVAAISSSGDSTYYADSVKGRFTISRDNAKNTVSLQMNSLKPEDTAVYYCNAGWYFYGESTDDYWGQGTQVTVSS	low polyreactivity
QVQLVESGGGLVQSGGSLRLSWAASGSIFVTYAMRCYRPAPGKERELVAAINSGGRTNYADSVKGRFTISRDNAMNTVFLNMNSMKPEDTAVYYCAATGRYFDPYYRYDYWGQGTQVTVSS	low polyreactivity
QVQLVESGGGLVQSGGSLRLTCAASGIIFPRYAMGWYRQAPGKERELVAAITRRGGRTYYADSVKGRFTISRDNAKNTVYLQMNSLKPEDTAVYYCNADFISTRPPKATDEDYWGQGTQVTVSS	high polyreactivity
QVQLVESGGGLVQVGCSLRLSCAASGFTFYNNVMGWYRQAPGKERELVAAITSTGSTSYADSVKGRFTISRDNAKNTVYLQMNSLKPEDTAVVYCARAYYYLLGGHYRHKYYWGQGTQVTVSS	high polyreactivity
QVQLVESGGGLVQVGGSLRLICAASGGIFSGNAMGWYRQAPGKERELVAGITNGGRTTYADSVKGRFTISRDNAKNTVYLQMNSLKPEDTAVYYCAAGKIGRRGHQNRLDLDYWGQGTQVTVSS	low polyreactivity
QVQLVESGGGLVQVGGSLRLSCAASGGIFCGNSMGWYRQAPGKERDLVAAISWDASTYYEDTVKGRFTISRDNAMNTVYLQMNSLKPEDTAVYYCNADIPYYFVYDAYDYWGQGTQVNVSS	low polyreactivity
QVQLVESGGGLVRAGGSLRLSCAASGFVYYVMGWYRQAPGKERELVAAISKGGGRTYYADSVKGRFTISRDNAKNTVYLQMNSLKPEDTAVYYCAAAFWRITRYGMDYWGQGTQVTVSS	high polyreactivity
QVQLVESGGGSVQAGGRLRLRCAASGLIFYYYAMGWYRQAPGKERELVADIDRGGDTYYADSVKGRFTISRDNAKNNVYLQMNSLKPEDTEVYYCAAVDSYGYVPVFGYWGQGTQVTVSS	low polyreactivity
QVQLVESGGGSVQAGGSLRLSCAASGFTFRYYAMGWYRQAPGKERELVAGISSRGGSTYYADSVKGRFTISRDNAKNTVYLQMNSLKPEDTAVYYCATERFLLGLGYDYWGQGTQVTVSS	high polyreactivity
QVQLVESGGGSVQAGGSLRLSCAASGFTFRYYAMGWYRQAPGKERELVARISYSGTSTYYADSVKGRFTISRDNAKNTVYLQMNSLKPEDTAVYYCAKLHRTYRQYIYDYWGQGTQVTVSS	high polyreactivity

From the nanobody polyreactivity screen of Harvey et al. (2022)
